Results: US20240240209A1, “SYNTHESIS OF ENANTIOPURE CIS-A-IRONE FROM A RENEWABLE CARBON SOURCE” (Agency for Science, Technology and Research, priority 2021, published 2024)

How the values were obtained:
[1] = Purified pMT7/pMT10 reaction with auxiliary enzymes mtn and mtaD; format: biochemical; details: 20 μM SAH introduced in the purified enzymatic reaction
From the text: All the purified enzyme reactions were done in triplicates.
An alternative strategy to reduce SAH inhibition is to introduce auxiliary enzymes that degrade SAH12 (FIG. 18a). […] Noteworthy, with mtaD enzyme, cis-α-irone production by pMT10 was improved by ˜2.5 fold as compared to pMT10 reaction alone (FIG. 3c). […] This somewhat agrees with the effect of mutating D135, which abolishes the hydrogen bond interaction between pMT7 and the amine group of the adenine moiety.

[2] = In-vivo cis-α-irone production screening of pMT7 and pMT12 mutants; format: cell-based, Escherichia coli; details: single mutations vs parent (pMT7 or pMT12)
How it was run: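 E. coli BL21(DE3) ΔaroA ΔaroB ΔaroC ΔserC strains, with or without ΔmetJ, carried the plasmids and were grown in 1 ml auto-inducing defined medium (glucose/glycerol, 30 mM lactose) at 28 °C for 3 days. Products were extracted into hexane and measured by GC-MS. Production is a semi-quantitative fold change relative to pMT12.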

[3] = Cell lysate reaction of pMT enzymes with psi-ionone, irones quantified by HS-SPME-GCMS; format: biochemical; details: single mutations vs parent (pMT7 or pMT12)
How it was run: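 pMT1 site-saturation mutants were expressed in E. coli BL21(DE3) and lysed, and lysates were incubated 2 days at 28 °C with 0.2 mM SAM and 10 mg/L psi-ionone (plus caryophyllene) in 50 mM Tris pH 7, 10 mM MgCl2. Cis-α-irone was measured by HS-SPME-GCMS peak area and given as fold change over non-mutated enzyme.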

B1: mtaD: 5-methylthioadenosine/S-adenosylhomocysteine deaminase, auxiliary enzyme deaminating SAH (protein, UniProt Q9X034 1-406, looked up)
5-methylthioadenosine/S-adenos …: MIIGNCLILKDFSSEPFWGAVEIENGTIKRVLQGEVKVDLDLSGKLVMPALFNTHTHAPMTLLRGVAEDLSFEEWLFSKVLPIEDRLTEKMAYYGTILAQMEMARHGIAGFVDMYFHEEWIAKAVRDFGMRALLTRGLVDSNGDDGGRLEENLKLYNEWNGFEGRIFVGFGPHSPYLCSEEYLKRVFDTAKSLNAPVTIHLYETSKEEYDLEDILNIGLKEVKTIAAHCVHLPERYFGVLKDIPFFVSHNPASNLKLGNGIAPVQRMIEHGMKVTLGTDGAASNNSLNLFFEMRLASLLQKAQNPRNLDVNTCLKMVTYDGAQAMGFKSGKIEEGWNADLVVIDLDLPEMFPVQNIKNHLVHAFSGEVFATMVAGKWIYFDGEYPTIDSEEVKRELARIEKELYSS
[1]
  effect of supplementary auxiliary enzyme on pMT7 and pMT10 activity: restored pMT7 and pMT10 activity

B2: Q60V: pMT7 with Q60V (protein)
chain: MPQEARTPQQQVTADEVGDWYDKFGEVYHLTLGESVHCGLWFPPDAPVPQDMELVTMSSKAQDRFTDYLIETLDPKAGQHLLDIGCGTGRTALKAARQRGIAVTGVAVSKEQIAAANRLAAGHGLTERLTFEVADAMRLPYEDESFDCAWAIESLCHMDRAKALGEAWRVLKPGGDLLVAEEVVTEELTEPETALFETLFALNVPPRLGEFFDIVSGAGFHTLSLKDLSANLAMTMNVFALGVYSRRAEFTERFGAEFVDGLLAGLGSAQETVIRKTRFFMATLRKPAV
modifications: Modified from pMT1
[2]
  in-vivo production of cis-α-irone (in words): increased cis-α-irone production in-vivo
[3]
  in-vitro production of cis-α-irone (in words): increased the cis-α-irone production in-vitro

B3: mtn: 5′-methylthioadenosine/S-adenosylhomocysteine nucleosidase, auxiliary enzyme hydrolysing SAH (protein, UniProt P0AF12 1-232, looked up)
5'-methylthioadenosine/S-adeno …: MKIGIIGAMEEEVTLLRDKIENRQTISLGGCEIYTGQLNGTEVALLKSGIGKVAAALGATLLLEHCKPDVIINTGSAGGLAPTLKVGDIVVSDEARYHDADVTAFGYEYGQLPGCPAGFKADDKLIAAAEACIAELNLNAVRGLIVSGDAFINGSVGLAKIRHNFPQAIAVEMEATAIAHVCHNFNVPFVVVRAISDVADQQSHLSFDEFLAVAAKQSSLMVESLVQKLAHG
[1]
  effect of supplementary auxiliary enzyme on pMT7 and pMT10 activity: restored pMT7 and pMT10 activity
